In publication doi:10.1101/2020.12.21.423864:

Target: Cadherin-11 extracellular domain 1 (Cad11-EC1), wild type, residues 1-98
Assay: NMR

Cadherin-11 extracellular domain 1 (Cad11-EC1), wild type, residues 1-98 (domain or fragment)
stoichiometry N: 2
